Target: T1, endogenous murine SOD1 WT (in non-transgenic mouse spinal cord lysate) (mouse, UniProt P08228 2-154)
T1 construct: Tested only as a component of clarified spinal cord lysate; also called marine SOD1 WT (as printed once)
Assay: competitive ELISA: Nb54 (0.2 µg/ml) on immobilized SOD1 G93A with Non-Tg mouse spinal cord lysate as competitor
Description: A competitive ELISA was used to assess a potential interaction between nanobody and SOD1 derived from an ALS mouse model as follows. […] All research involving animals for the following post-mortem tissue processing was reviewed and approved by the Institutional Animal Care and Use Committee (IACUC) at the University of Massachusetts Chan Medical School.
Serial dilutions were prepared in 25 μl of assay buffer (0.2% (w/v) BSA in PBS). […] A statistical analysis was performed as described below and in the figure legend.

T1 sequence (P08228 2-154 limits assumed): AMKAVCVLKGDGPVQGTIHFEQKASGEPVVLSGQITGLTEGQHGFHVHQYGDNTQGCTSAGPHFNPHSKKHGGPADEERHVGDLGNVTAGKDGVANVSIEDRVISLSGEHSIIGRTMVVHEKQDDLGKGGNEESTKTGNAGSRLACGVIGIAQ

- binding result: no binding
B1: Nb54 with a non-cleavable his-tag (used in the competitive ELISA) (VHH)
VHH: QVQLVESGGGWVQAGGSLRLSCVVSGTNFNDRSMGWYRQAPGKERELVATLSYGGRRNYVDAVKARFTMSRDNRKNTTYLLMNDLEPDDTAVYYCAAGHVLESVVPATTWIEYWGQGTQVTVSS
notes: not shown: non-cleavable his-tag

Source: patent US20250388697A1 (UNIVERSITY OF MASSACHUSETTS, published 2025)
